US10201586B2 (dated 2019)
pIC50: −log10 of the molar value. *1 amine or outer side, *2 acyl side, *3 side chain or, on linkers, in order; H or OH if unused. Where a SMILES comes first, the peptide text is derived from it. Bridges are numbered along the chain shown (N, C = ends). [ ]: non-standard residue; d: D form. The star is where a group is joined. ξ: configuration not given here. Succinimide(1-Et,3-yl) = CCN1C(=O)CC(*)C1=O; Bta = N[C@@H](Cc1csc2ccccc12)C(=O)O; Cysteamide = C(CS[*:3])N[*:1]; Tle = CC(C)(C)[C@H](N)C(=O)O; hCys = N[C@@H](CCS)C(=O)O; ξβ3hV = CC(C)C(N)CC(=O)O; Aib = CC(C)(N)C(=O)O

Legend:
[1] = target: T1, TFPI (Homo sapiens, UniProt P10646); experiment: IC50 Mean (nM]
Target sequence in this assay (P10646 29-304 limits assumed): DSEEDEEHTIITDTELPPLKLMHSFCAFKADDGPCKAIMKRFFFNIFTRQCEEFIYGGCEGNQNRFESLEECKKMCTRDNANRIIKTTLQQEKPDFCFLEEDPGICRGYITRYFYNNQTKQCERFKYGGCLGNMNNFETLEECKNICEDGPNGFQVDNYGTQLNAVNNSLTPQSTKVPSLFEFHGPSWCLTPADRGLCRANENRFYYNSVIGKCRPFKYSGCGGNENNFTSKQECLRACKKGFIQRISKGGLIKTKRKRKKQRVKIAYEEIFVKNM

[2] = target: T1, TFPI; experiment: IC50 [nM]
Target sequence in this assay (P10646 29-304 limits assumed): as above

[3] = plasma stability in human plasma; assay type: in vitro ADME; details: for remaining at 24 h: 24 hour incubation in human plasma, quantitative ELISA
[4] = target: Tissue Factor Pathway Inhibitor (TFPI) (Homo sapiens, UniProt P10646); experiment: IC50 ELISA | IC50 [nM]
[5] = target: T1, TFPI; experiment: % Inhibition @ 2.5µM
[6] = target: T1, TFPI; experiment: Extrinsic Tenase Inhibition assay | % Inhibition @ 2.5µM

Tissue Factor Pathway Inhibitor (TFPI), sequence (P10646 29-304 limits assumed): as above

Molecule	% Inhibition @ […] [5] [%]	Extrinsic Tenase Inhibition assay | % Inhibition @ […] [6] [%]	other results
CC(=O)N[C@@H](Cc1ccccc1)C(=O)N[C@@H](CCC(N)=O)C(=O)N[C@@H](CO)C(=O)N[C@@H](CCCCN)C(=O)NCC(=O)N[C@@H](CC(N)=O)C(=O)NC(CC(=O)N[C@@H](Cc1ccccc1)C(=O)N[C@H](C(=O)N[C@@H](Cc1ccccc1)C(=O)NCC(=O)N[C@@H](Cc1ccc(O)cc1)C(=O)N[C@@H](Cc1ccccc1)C(=O)N[C@@H](CCC(=O)O)C(=O)N[C@@H](CCCNC(=N)N)C(=O)N[C@@H](CC(C)C)C(=O)N[C@@H](CCCNC(=N)N)C(=O)N[C@@H](C)C(=O)N[C@@H](CCCCN)C(=O)N[C@@H](CC(C)C)C(N)=O)C(C)C)C(C)C (stereo partly drawn) [JBT0521 | 756] (Ac-FQSKGN[ξβ3hV]FVFGYFERLRAKL-NH2)	–	–	pIC50 [1]: < 5.30
CSCC[C@H](NC(=O)[C@H](CCC(=O)O)NC(=O)[C@H](CCCCN)NC(=O)[C@H](CO)NC(=O)[C@H](CCCNC(=N)N)NC(=O)[C@H](CCCCN)NC(=O)[C@H](CO)NC(=O)[C@@H](NC(=O)[C@H](Cc1c[nH]cn1)NC(=O)[C@H](CC(C)C)NC(=O)[C@H](CCC(N)=O)NC(=O)[C@@H](NC(=O)[C@H](C)NC(=O)[C@H](CC(C)C)NC(=O)[C@@H]1CCCN1C(=O)[C@H](Cc1ccccc1)NC(=O)[C@H](CO)NC(=O)[C@H](C)NC(=O)[C@H](Cc1ccc(O)cc1)NC(=O)CNC(=O)[C@H](CO)NC(C)=O)C(C)C)C(C)C)C(=O)N[C@@H](C)C(=O)N[C@@H](CC(C)C)C(=O)N[C@@H](C)C(=O)N[C@@H](CCCNC(=N)N)C(=O)N[C@@H](C)C(=O)N[C@@H](Cc1ccc(O)cc1)C(=O)N[C@@H](Cc1ccc(O)cc1)C(=O)N[C@@H](CCCCN)C(=O)N[C@H](C(=O)N[C@@H](CO)C(N)=O)[C@@H](C)O [JBT0685 | 2021] (Ac-SGYASFPLAVQLHVSKRSKEMALARAYYKTS-NH2)	–	–	pIC50 [2]: 5.04
CSCC[C@H](NC(=O)[C@H](CCC(=O)O)NC(=O)[C@H](CCCCN)NC(=O)[C@H](CO)NC(=O)[C@H](CCCNC(=N)N)NC(=O)[C@H](CCCCN)NC(=O)[C@H](CO)NC(=O)[C@@H](NC(=O)[C@H](Cc1c[nH]cn1)NC(=O)[C@H](CC(C)C)NC(=O)[C@H](CCC(N)=O)NC(=O)[C@@H](NC(=O)[C@H](C)NC(=O)[C@H](CC(C)C)NC(=O)[C@@H]1CCCN1C(=O)[C@H](Cc1ccccc1)NC(=O)[C@H](CO)NC(=O)[C@H](C)NC(=O)[C@H](Cc1ccc(O)cc1)NC(=O)CNC(=O)[C@H](CO)NC(C)=O)C(C)C)C(C)C)C(=O)N[C@@H](C)C(=O)N[C@@H](CC(C)C)C(=O)N[C@@H](C)C(=O)N[C@@H](CCCNC(=N)N)C(=O)N[C@@H](CC(C)C)C(=O)N[C@@H](C)C(=O)N[C@@H](Cc1ccc(O)cc1)C(=O)N[C@@H](CCCCN)C(=O)N[C@H](C(=O)N[C@@H](CO)C(N)=O)[C@@H](C)O [JBT0686 | 2140] (Ac-SGYASFPLAVQLHVSKRSKEMALARLAYKTS-NH2)	–	–	pIC50 [2]: 4.87
CSCC[C@H](NC(=O)[C@H](CCC(=O)O)NC(=O)[C@H](CCCCN)NC(=O)[C@H](CO)NC(=O)[C@H](CCCNC(=N)N)NC(=O)[C@H](CCCCN)NC(=O)[C@H](CO)NC(=O)[C@@H](NC(=O)[C@H](Cc1c[nH]cn1)NC(=O)[C@H](CC(C)C)NC(=O)[C@H](CCC(N)=O)NC(=O)[C@@H](NC(=O)[C@H](C)NC(=O)[C@H](CC(C)C)NC(=O)[C@@H]1CCCN1C(=O)[C@H](Cc1ccccc1)NC(=O)[C@H](CO)NC(=O)[C@H](C)NC(=O)[C@H](Cc1ccc(O)cc1)NC(=O)CNC(=O)[C@H](CO)NC(=O)[C@H](CO)NC(=O)CN)C(C)C)C(C)C)C(=O)N[C@@H](C)C(=O)N[C@@H](CC(C)C)C(=O)N[C@@H](C)C(=O)N[C@@H](CCCNC(=N)N)C(=O)N[C@@H](CC(C)C)C(=O)N[C@@H](Cc1ccc(O)cc1)C(=O)N[C@@H](Cc1ccc(O)cc1)C(=O)N[C@@H](CCCCN)C(=O)N[C@H](C(=O)N[C@@H](CO)C(=O)O)[C@@H](C)O [JBT0788] (H-GSSGYASFPLAVQLHVSKRSKEMALARLYYKTS-OH)	–	–	pIC50 [2]: 4.79
CC(=O)N[C@@H](Cc1ccccc1)C(=O)N[C@@H](CCC(N)=O)C(=O)N[C@@H](CO)C(=O)N[C@@H](CCCCN)C(=O)N(C)CC(=O)N[C@@H](CC(N)=O)C(=O)N[C@H](C(=O)N[C@@H](Cc1ccccc1)C(=O)N[C@H](C(=O)N[C@@H](CC(=O)O)C(=O)NCC(=O)N[C@@H](Cc1ccc(O)cc1)C(=O)N[C@@H](Cc1ccccc1)C(=O)N[C@@H](CCC(=O)O)C(=O)N[C@@H](CCCNC(=N)N)C(=O)N[C@@H](CC(C)C)C(=O)NC(C)(C)C(=O)N[C@@H](C)C(=O)N[C@@H](CCCCN)C(=O)N[C@@H](CC(C)C)C(N)=O)C(C)C)C(C)C [JBT1584]	–	–	Plasma Stability (half life in minutes) human ([3]; human plasma): >2 h
CC(=O)N[C@@H](Cc1ccccc1)C(=O)N[C@@H](CCC(N)=O)C(=O)N[C@@H](CO)C(=O)N[C@@H](CCCCN)C(=O)N1CCC[C@@H]1C(=O)N[C@@H](CC(N)=O)C(=O)N[C@H](C(=O)N[C@@H](Cc1cnc[nH]1)C(=O)N[C@H](C(=O)N[C@@H](CC(=O)O)C(=O)NCC(=O)N[C@@H](Cc1ccc(O)cc1)C(=O)N[C@@H](Cc1ccccc1)C(=O)N[C@@H](CCC(=O)O)C(=O)N[C@@H](CCCNC(=N)N)C(=O)N[C@@H](CC(C)C)C(=O)NC(C)(C)C(=O)N[C@@H](C)C(=O)N[C@@H](CCCCN)C(=O)N[C@@H](CC(C)C)C(N)=O)C(C)(C)C)C(C)C [JBT2431] (Ac-FQSK[dP]NVH[Tle]DGYFERL[Aib]AKL-NH2)	–	–	remaining at 24 h [3]: 82%
CC(=O)N[C@@H](Cc1ccccc1)C(=O)N[C@@H](CCC(N)=O)C(=O)N[C@@H](CO)C(=O)N[C@@H](CCCCN)C(=O)N1CCC[C@@H]1C(=O)N[C@@H](CC(N)=O)C(=O)N[C@H](C(=O)N[C@@H](Cc1cnc[nH]1)C(=O)N[C@H](C(=O)N1CCC[C@H]1C(=O)NCC(=O)N[C@@H](Cc1ccc(O)cc1)C(=O)N[C@@H](Cc1ccccc1)C(=O)N[C@@H](CCC(=O)O)C(=O)N[C@@H](CCCNC(=N)N)C(=O)N[C@@H](CC(C)C)C(=O)NC(C)(C)C(=O)N[C@@H](C)C(=O)N[C@@H](CCCCN)C(=O)N[C@@H](CC(C)C)C(N)=O)C(C)C)C(C)C [JBT2432]	–	–	remaining at 24 h [3]: 76%
CCN1C(=O)CC(SC[C@H](NC(=O)[C@H]2CCCN2C(=O)[C@H](CCCCN)NC(=O)[C@H](CO)NC(=O)[C@H](CCC(N)=O)NC(=O)[C@H](Cc2ccccc2)NC(C)=O)C(=O)N[C@H](C(=O)N[C@@H](Cc2c[nH]cn2)C(=O)N[C@H](C(=O)N[C@@H](CC(=O)O)C(=O)N[C@H](C)C(=O)N[C@@H](Cc2ccc(O)cc2)C(=O)N[C@@H](Cc2csc3ccccc23)C(=O)N[C@@H](CCC(=O)O)C(=O)N[C@@H](CCCNC(=N)N)C(=O)N[C@@H](CC(C)C)C(=O)NC(C)(C)C(=O)N[C@@H](C)C(=O)N[C@@H](CCCCN)C(=O)N[C@@H](CC(C)C)C(N)=O)C(C)(C)C)C(C)C)C1=O (stereo partly shown) [JBT2502 | 4217, Ac-FQSKp-C(NEM)-VH-Tle-DaY-Bta-ERL-Aib-AKL-NH2] (Ac-FQSK[dP]C(Succinimide(1-Et,3-yl))VH[Tle]D[dA]Y[Bta]ERL[Aib]AKL-NH2)	–	–	pIC50 [4]: 8.39
CC(=O)N[C@@H](Cc1ccccc1)C(=O)N[C@@H](CCC(N)=O)C(=O)N[C@@H](CO)C(=O)N[C@@H](CCCCN)C(=O)N1CCC[C@@H]1C(=O)N[C@@H](CC(N)=O)C(=O)N[C@H](C(=O)N[C@@H](Cc1c[nH]cn1)C(=O)N[C@H](C(=O)N1CCC[C@H]1C(=O)N[C@H](C)C(=O)N[C@@H](Cc1ccc(O)cc1)C(=O)N[C@@H](Cc1csc2ccccc12)C(=O)N[C@@H](CCC(=O)O)C(=O)N[C@@H](CCCNC(=N)N)C(=O)N[C@@H](CC(C)C)C(=O)NC(C)(C)C(=O)N[C@@H]1CSSCCNC(=O)[C@H](CC(C)C)NC(=O)[C@H](CCCCN)NC1=O)C(C)C)C(C)C [JBT2517 | 4232, Ac-FQSKpNVHVPaY-Bta-ERL-Aib-cKL-Cea-] (Ac-FQSK[dP]NVHVP[dA]Y[Bta]ERL[Aib][dC]KL-Cysteamide; disulfide 18-C)	–	–	pIC50 [4]: 6.57
CC(=O)N[C@@H](Cc1ccccc1)C(=O)N[C@@H](CCC(N)=O)C(=O)N[C@@H](CO)C(=O)N[C@@H](CCCCN)C(=O)N1CCC[C@@H]1C(=O)N[C@@H](CC(N)=O)C(=O)N[C@H](C(=O)N[C@@H](Cc1c[nH]cn1)C(=O)N[C@H](C(=O)N1CCC[C@H]1C(=O)N[C@@H]1CSSCC[C@@H](C(=O)N[C@@H](CCCNC(=N)N)C(=O)N[C@@H](CC(C)C)C(=O)NC(C)(C)C(=O)N[C@@H](C)C(=O)N[C@@H](CCCCN)C(=O)N[C@@H](CC(C)C)C(N)=O)NC(=O)[C@H](Cc2csc3ccccc23)NC(=O)[C@H](Cc2ccc(O)cc2)NC1=O)C(C)C)C(C)C [JBT2518 | 4233, Ac-FQSKpNVHVPcY-Bta--Hcy-RL-Aib-AKL-NH2] (Ac-FQSK[dP]NVHVP[dC]Y[Bta][hCys]RL[Aib]AKL-NH2; disulfide 11-14)	–	–	pIC50 [4]: 7.97

Now from value to molecule, other results behind:

% Inhibition @ […] [5] [%]	Extrinsic Tenase Inhibition assay | % Inhibition @ […] [6] [%]	Molecule	other results
10	5	Ac-SGYASFPLAVQLHVAKRSKEMALARLYYKTS-NH2 (SEQ ID NO: 2008) [JBT0674]	–
0	7	Ac-SGYASFPLAVQLHVSARSKEMALARLYYKTS-NH2 (SEQ ID NO: 2136) [JBT0675]	–
0	1	Ac-SGYASFPLAVQLHVSKASKEMALARLYYKTS-NH2 (SEQ ID NO: 2137) [JBT0676]	–
4	2	Ac-SGYASFPLAVQLHVSKRAKEMALARLYYKTS-NH2 (SEQ ID NO: 2009) [JBT0677]	–
4	1	Ac-SGYASFPLAVQLHVSKRSKEMALARAYYKTS-NH2 (SEQ ID NO: 2021) [JBT0685]	–
3	1	Ac-SGYASFPLAVQLHVSKRSKEMALARLAYKTS-NH2 (SEQ ID NO: 2140) [JBT0686]	–
